US20110093983A1, “ALGAL GLYCEROL-3 PHOSPHATE ACYLTRANSFERASE” (National Research Council of Canada, priority 2008, published 2011)

Experiments:
Brassica napus = assay: Fatty acid analysis of T1 seeds from TpGPAT transgenic Brassica napus; type: in vivo; details: 5 transgenic Brassica napus events; wild-type 4.27-4.64%
Procedure: FIG. 6 graphically depicts the results of the analysis of the fatty acid 16:0 content of T1 seeds from TpGPAT transgenic Brassica napus. Fatty acid analysis was performed on TpGPAT transformed B. napus seeds. Fatty acid composition (as molar percentage) was determined in the seed oil extracted from T1 seeds of five independent TpGPAT:pSE transformed Brassica napus events (GPAT1, 3, 4, 7 and 12). Wild-type B. napus was used as a control.
(§1) The full length coding region of the TpGPAT gene was amplified using pfu DNA polymerase and primers designed with two restriction sites (KpnI and XbaI) added for subsequent cloning. Then, the PCR product was digested and inserted in a plant transformation vector (pSE129A) under the control of a seed-specific promoter (Napin). The binary vector was introduced by electroporation into Agrobacterium tumefaciens strain GV3101 containing helper plasmid pMP90 (Koncz and Schell, 1986).
Brassica napus 5-day-old hypocotyls were also transformed with Agrobacterium containing the TpGPAT/pSE129A construct. Transgenic T0 plants were regenerated, selected for resistance to kanamycin and grown in soil. Individual plants were bagged to allow self-pollination. Presence of the TpGPAT and Kan genes in the resistant plants was verified by PCR with the appropriate primers in 18 independent events. T1 seeds from the first set of 5 transgenic events were harvested and analyzed. […]

Arabidopsis thaliana = assay: Fatty acid and oil content analysis of T2 seeds from TpGPAT transgenic Arabidopsis; type: in vivo; details: transgenic Arabidopsis lines (GW), Napin promoter
Procedure: FIG. 5 graphically depicts the results of the analysis of the fatty acid 16:0 content of T2 seeds from TpGPAT transgenic Arabidopsis. Fatty acid analysis was performed on TpGPAT transformed Arabidopsis seeds. Fatty acid composition (as molar percentage) was determined in the seed oil extracted from 200 T2 seeds of 13 TpGPA:pSE transformed Arabidopsis lines (GW4-GW17). pSE129A empty plasmid transformed wild-type Arabidopsis was used as a control.
FIG. 7 graphically depicts the total oil content of TpGPAT transformed Arabidopsis seeds. Oil contents (as percentage of dry weight) were determined in 200 T2 seeds of the 13 TpGPA:pSE transformed Arabidopsis lines (GW4-12; GW14-17). Wild-type Arabidopsis was used as a control (Con).
as §1, with “1986). […]” for “1986).”

yeast gat1 mutant = assay: Incorporation of fed EPA or DHA into TAGs and phospholipids of yeast gat1 mutant; type: cell-based, Saccharomyces cerevisiae; details: for mol % of FA in Phospholipids, DHA / mol % of FA in Phospholipids, EPA / mol % of FA in TAGS, DHA / mol % of FA in TAGS, EPA: 3-day induction
Procedure: Yeast cultures were grown at 28° C. in the presence of 2% (w/v) glucose and 1% (w/v) Tergitol NP-40 (Sigma, St. Louis, Mo., US). Expression of the transgene was induced at OD600 nm 0.2 to 0.3 by supplementing galactose to 2% (w/v). At that time, the appropriate FAs were added to a final concentration of 50 or 100 μM in the presence of 1% (w/v) Tergitol NP-40 (Sigma, St. Louis, Mo., US). Yeast cells (20 ml) were harvested after a 3-day incubation, total lipids from yeast homogenates were extracted using the procedure of Schneiter (2005). Separation of neutral lipids and polar lipids was performed by running the thin layer chromatography plates (Si 250-PA, Baker, Phillipsburg, N.J.) in a developing solvent of hexane: ether: acetic acid (70:30:1, v/v) and identified by co-migration with known standards. Spots corresponding to TAG and phospholipid were scraped off the TLC plates and were transmethylated with methanolic HCl and quantified by gas chromatography as described previously. (Zheng and Zou, 2001).
Yeast gat1 strain transformed with TpGPAT or empty vector pYES2.1 was grown in the presence of EPA or DHA, while being induced by galactose. Triacylglycerols (TAGS) and phospholipids from the 3-day culture were extracted and analyzed by gas chromatography for fatty acid composition. […] It was not clear if this were due to the low GPAT activity for these VLCPUFAs or the lack of EPA and DHA-CoA in the cells.

B1: TpGPAT1: membrane-bound glycerol-3-phosphate acyltransferase from T. pseudonana, 674 amino acids, SEQ ID NO:2 (nucleotide SEQ ID NO:1) (protein, listed as Thalassiosira pseudonana)
chain: MGVEKKGTMMSELDYTKAQLAFFYIVVLLSLDMLNPVKIFLHVFPAIKSWHIATFAIACMSYIFIVNLRELLYFATKVFFHSILSIFFNDVTVVGRENIPSHGPVIFTSNHANQFMDGLMIMCTCQRTISYLVADKSWNRPIIGHLAWMMGGVPVKRAQDSACKGTGKISIDLNALAGSDAVINVVGKGTSFTSQIKAGDKIRLPNNAIGIKVESIESDESMSLKVEDGVAEVLSSHPFPEYVTYDILPRIDQKDVYQNVLEKLASGGTIGIFPEGGSHDRTDLLPLKVGVALIAYSELEKDGINVPIVPVGLNYFRAHRFRGKATVEFGSPTYIEPSTLADYKKGGADKRRVCNDLLARIENSMRSVIVSVPDFETLQTIHAARRLYRQDGRNETAEQRQDMGRRFAEGYKRVLLQLGGEPPEEWLSLQSRILAYQKELNELGIRDYQVVGLDHEEVELGSESQGHSKADTVLHRMNVFGHIVHLFVIAVLAALPAMLLNLPVGLASRIYSNRRRKVALAASKVKVKGYDVMLSERVLACIVLVPSLWVVYGLLLSLFTSLDGPSLAVCFTCFPLFSYWSIMATESGMVDIKDLRPYVMRMIPSARRRLAALPATRKALRSDLRAMIKKIGPSLGDIYYEKDLNWQKIQMETKRMSMEELDPAQKDEAAKKEE
16:0 percentage in T1 seeds (Brassica napus): 4.64-6.67%
16:0 content of T2 seeds compared to non-transformed control (Arabidopsis thaliana): More than half of the identified transgenic lines (GW) showed an increase of 16:0
mol % of FA in Phospholipids, DHA (yeast gat1 mutant; feeding concentration 50 μM): 0.22 ± 0.03 mol %
mol % of FA in Phospholipids, EPA (yeast gat1 mutant; feeding concentration 50 μM): 0.42 ± 0.01 mol %
mol % of FA in TAGS, DHA (yeast gat1 mutant; feeding concentration 50 μM): 0.70 ± 0.06 mol %
mol % of FA in TAGS, EPA (yeast gat1 mutant; feeding concentration 50 μM): 1.18 mol %
mol % of FA in Phospholipids, DHA (yeast gat1 mutant; feeding concentration 100 μM): 0.34 ± 0.02 mol %
mol % of FA in Phospholipids, EPA (yeast gat1 mutant; feeding concentration 100 μM): 0.85 ± 0.15 mol %
mol % of FA in TAGS, DHA (yeast gat1 mutant; feeding concentration 100 μM): 1.10 ± 0.07 mol %
mol % of FA in TAGS, EPA (yeast gat1 mutant; feeding concentration 100 μM): 3.38 ± 0.78 mol %
Impact on incorporation of LCPUFAs into TAG or phospholipids compared to empty vector control (yeast gat1 mutant; yeast gat1 grown in presence of EPA or DHA, 3-day culture): did not have much impact
